This note sets out measurements from paper PMC10976570.

What is called stoichiometry N is the number of molecules, sites or subunits per partner or assembly.

For the assay, the target named is wild-type PlaF (phospholipase A1 PlaF, PA2949) from Pseudomonas aeruginosa (Pseudomonas aeruginosa). In words: cross-linking.

Regarding “wild-type PlaF (phospholipase A1 PlaF, PA2949) from Pseudomonas aeruginosa (enzyme)”, the more dimer in the C10-treated sample than in the untreated one was 70% and the stoichiometry N was 2.
